B1: anti-GFP-FLAG-barcode 2 (VHH)
VHH: QVQLVESGGALVQPGGSLRLSCAASGFPVNRYSMRWYRQAPGKEREWVAGMSSAGDRSSYEDSVKGRFTISRDDARNTVYLQMNSLKPEDTAVYYCNVNVGFEYWGQGTQVTVSS
notes: also called anti-GFP nanobody
B2: anti-CD4-FLAG (VHH)
VHH: EVQLVESGGGSVQPGGSLTLSCGTSGRTFNVMGWFRQAPGKEREFVAAVRWSSTGIYYTQYADSVKSRFTISRDNAKNTVYLEMNSLKPEDTAVYYCAADTYNSNPARWDGYDFRGQGTQVTVSS
notes: Secreted from Pichia pastoris with the alpha-factor signal, which is cleaved during secretion; also called Anri-CD4-FLAG; anti-CD4 nanobody with no barcode
B3: anti-CD4-FLAG-barcode 1 (VHH)
VHH: B2 VHH
notes: Secreted from Pichia pastoris with the alpha-factor signal, which is cleaved during secretion; also called anti-CD4 nanobody
B4: anti-CD4 with barcode 4-1 (VHH)
VHH: B2 VHH
notes: secreted from Pichia pastoris
B5: anti-CD4 with barcode 4-4 (VHH)
VHH: B2 VHH
notes: secreted from Pichia pastoris
B6: anti-CD4 with barcode 4-3 (VHH)
VHH: B2 VHH
notes: secreted from Pichia pastoris
B7: anti-CD4 with barcode 4-6 (VHH)
VHH: B2 VHH
notes: secreted from Pichia pastoris
B8: anti-CD4 with barcode 4-5 (VHH)
VHH: B2 VHH
notes: secreted from Pichia pastoris
B9: anti-CD4 with barcode 4-8 (VHH)
VHH: B2 VHH
notes: secreted from Pichia pastoris
B10: anti-CD4 with barcode 4-7 (VHH)
VHH: B2 VHH
notes: secreted from Pichia pastoris
B11: anti-CD4 with barcode 4-2 (VHH)
VHH: B2 VHH
notes: secreted from Pichia pastoris

Tests used:
[1] = target: T1, CD4 on the surface of HEK293 cells transfected with pCAGGS-CD4-myc (UniProt P01730 26-458, limits assumed); experiment: immunofluorescence staining of fixed CD4-expressing HEK293 cells, anti-FLAG-AF488 secondary
T1 construct: whole, on cells; Cells were fixed with 4% paraformaldehyde before staining; also called CD4 surface expressing cells

[2] = target: T2, recombinant human sCD4 CF (manufactured by R&D Systems) (human, UniProt P01730 26-390, limits assumed); experiment: simultaneous binding assay on CD4-immobilized magnetic beads, barcode cleaved by enterokinase and quantified by LC-MS/MS
T2 construct: Immobilized on the Biacore sensor chip; also called recombinant CD4; CD4 antigen

[3] = target: T2, recombinant human sCD4 CF (manufactured …); experiment: SPR, Biacore T-200, CD4 immobilized on chip, as in Example 2
[4] = target: T2, recombinant human sCD4 CF (manufactured …); experiment: SPR, Biacore T-200, antigen immobilized on chip, nanobody as analyte

| Binder | binding result [1] | binding result [2] | Kd [3] | koff [3] | kon [3] | Kd [4] | koff [4] | kon [4] |
| --- | --- | --- | --- | --- | --- | --- | --- | --- |
| B1 | no binding (tested: 3.3 µg/ml) | no binding (tested: 0.1 µM) |  |  |  |  |  |  |
| B2 |  |  | 26 nM | 0.0037 s⁻¹ | 140000 M⁻¹ s⁻¹ | 42 nM | 0.0054 s⁻¹ | 68000 M⁻¹ s⁻¹ |
| B3 |  |  |  |  |  | 52 nM | 0.004 s⁻¹ | 77000 M⁻¹ s⁻¹ |
| B4 |  |  | 21 nM | 0.003 s⁻¹ | 140000 M⁻¹ s⁻¹ |  |  |  |
| B5 |  |  | 25 nM | 0.0029 s⁻¹ | 120000 M⁻¹ s⁻¹ |  |  |  |
| B6 |  |  | 26 nM | 0.0036 s⁻¹ | 140000 M⁻¹ s⁻¹ |  |  |  |
| B7 |  |  | 28 nM | 0.0033 s⁻¹ | 120000 M⁻¹ s⁻¹ |  |  |  |
| B8 |  |  | 24 nM | 0.0028 s⁻¹ | 180000 M⁻¹ s⁻¹ |  |  |  |
| B9 |  |  | 19 nM | 0.0029 s⁻¹ | 160000 M⁻¹ s⁻¹ |  |  |  |
| B10 |  |  | 24 nM | 0.0028 s⁻¹ | 110000 M⁻¹ s⁻¹ |  |  |  |
| B11 |  |  | 28 nM | 0.0028 s⁻¹ | 100000 M⁻¹ s⁻¹ |  |  |  |

Reference: patent US20220275417A1 (BARCODEBODY, published 2022)
